{"source": "patent US20040121957A1", "binders": {"B1": {"name": "synthetic NEG2 peptide (22 amino acid peptide corresponding to CFTR amino acids 817-838) (peptide)", "peptide": "GLEISEEINEEDLKECFFDDME"}}, "target": "ΔNEG2-CFTR (CFTR with amino acids 817-838 deleted) (human), P13569", "sequence (P13569 other isoform, or with tags, fused parts or gaps mutant)": "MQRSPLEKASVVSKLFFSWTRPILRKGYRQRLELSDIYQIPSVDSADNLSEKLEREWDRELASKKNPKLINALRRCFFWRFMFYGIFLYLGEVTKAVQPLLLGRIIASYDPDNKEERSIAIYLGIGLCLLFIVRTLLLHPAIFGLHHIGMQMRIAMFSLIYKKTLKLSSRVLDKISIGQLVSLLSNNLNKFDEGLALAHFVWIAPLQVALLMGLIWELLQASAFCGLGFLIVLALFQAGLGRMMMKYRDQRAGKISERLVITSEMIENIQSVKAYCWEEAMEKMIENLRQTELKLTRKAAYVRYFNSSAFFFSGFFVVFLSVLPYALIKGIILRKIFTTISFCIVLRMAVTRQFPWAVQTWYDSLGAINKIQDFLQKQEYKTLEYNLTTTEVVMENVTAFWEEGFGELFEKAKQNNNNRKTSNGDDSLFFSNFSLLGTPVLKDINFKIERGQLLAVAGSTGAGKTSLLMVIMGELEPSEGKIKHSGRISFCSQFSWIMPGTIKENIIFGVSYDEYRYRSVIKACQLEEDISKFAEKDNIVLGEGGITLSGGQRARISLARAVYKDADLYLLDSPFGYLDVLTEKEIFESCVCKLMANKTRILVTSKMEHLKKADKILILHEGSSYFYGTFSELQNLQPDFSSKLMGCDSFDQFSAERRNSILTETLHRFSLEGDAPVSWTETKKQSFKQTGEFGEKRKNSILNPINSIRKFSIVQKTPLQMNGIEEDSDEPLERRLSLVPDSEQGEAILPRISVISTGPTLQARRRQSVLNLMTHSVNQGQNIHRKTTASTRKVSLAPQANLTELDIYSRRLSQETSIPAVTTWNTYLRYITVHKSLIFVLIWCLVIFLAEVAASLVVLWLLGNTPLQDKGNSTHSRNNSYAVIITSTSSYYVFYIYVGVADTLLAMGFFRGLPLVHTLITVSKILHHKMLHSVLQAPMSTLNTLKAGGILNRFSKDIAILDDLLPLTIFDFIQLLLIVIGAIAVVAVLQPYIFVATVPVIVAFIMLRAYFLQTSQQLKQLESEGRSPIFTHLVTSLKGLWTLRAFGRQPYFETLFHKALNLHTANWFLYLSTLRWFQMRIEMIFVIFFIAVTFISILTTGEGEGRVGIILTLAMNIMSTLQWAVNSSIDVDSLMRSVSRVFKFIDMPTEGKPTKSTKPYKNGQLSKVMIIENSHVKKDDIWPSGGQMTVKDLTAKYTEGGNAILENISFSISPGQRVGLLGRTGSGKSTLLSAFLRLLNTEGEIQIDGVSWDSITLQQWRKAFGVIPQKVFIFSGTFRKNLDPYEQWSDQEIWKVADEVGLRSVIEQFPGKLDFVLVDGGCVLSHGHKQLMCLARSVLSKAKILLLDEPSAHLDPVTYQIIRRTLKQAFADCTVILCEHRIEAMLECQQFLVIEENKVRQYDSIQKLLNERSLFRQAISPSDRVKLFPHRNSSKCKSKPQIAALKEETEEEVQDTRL", "experiment": "cell-based or functional assay"}
{"binder": "B1", "values": [{"measurement": "stimulation of single channel (peptide concentration)", "value": 0.44, "unit": "µM"}]}
